Two molecules from patent US20020002277A1, “Inhibitors of platelet activation and recruitment” (priority 1998, published 2002) can be followed below.

Data set [1] addresses T1, N-terminally FLAG-tagged soluble human CD39 secreted from COS-1 cells transfected with pIL2LFlagSolCD39 (human, UniProt P49961 38-476).
T1 construct: The cleavage site of the leader was not determined for the FLAG-tagged form; In conditioned medium, about 66 kD, glycosylated; also called pIL2LFlagSolCD39 product; tagged soluble CD39
T1 sequence: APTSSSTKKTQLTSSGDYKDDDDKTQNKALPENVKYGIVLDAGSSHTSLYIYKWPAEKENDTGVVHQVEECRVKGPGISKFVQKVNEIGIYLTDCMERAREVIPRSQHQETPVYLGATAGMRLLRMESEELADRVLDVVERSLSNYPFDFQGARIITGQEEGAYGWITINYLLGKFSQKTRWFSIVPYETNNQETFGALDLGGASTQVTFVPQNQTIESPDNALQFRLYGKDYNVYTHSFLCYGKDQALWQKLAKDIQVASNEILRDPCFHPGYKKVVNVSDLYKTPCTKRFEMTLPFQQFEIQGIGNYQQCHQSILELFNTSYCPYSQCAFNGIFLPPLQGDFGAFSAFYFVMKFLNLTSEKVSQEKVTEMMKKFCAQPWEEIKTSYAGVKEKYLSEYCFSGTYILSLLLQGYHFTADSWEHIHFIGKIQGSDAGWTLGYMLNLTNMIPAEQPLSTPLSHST
Put plainly: immunoaffinity depletion of COS-1 conditioned medium with conjugated Affigel beads, ATPase activity left in the supernatant. How it is done:
CM was collected from COS-1 cells transfected with pIL2LFlagSolCD39, which had been cultured for 5 days in DMEM/F12 supplemented with 5% FCS. A 100 μl aliquot of drained Affigel beads (AG) conjugated with either chicken ovalbumin, antiFLAG mAb, or anti-CD39 mAb was added per ml of CM. […] Each cycle involved continuous gentle agitation of the slurry for 14 h at 4° C. followed by centrifugation to recover supernatants for a subsequent binding cycle or for ATPDase activity measurements.

Data set [2] in a line: Enzymatic (ATPase and ADPase) activity of site-directed CD39 mutants. Format: biochemical. The note with it: alanine replacement in conserved apyrase regions. How it is done:
Mutants were assayed for enzymatic (ATPase and ADPase) and platelet inhibitory (dose-dependent inhibition of platelet aggregation) activities. For one series of mutants, residues within the conserved apyrase regions were replaced with alanine.

A further data set has as its system platelets. Put plainly: Platelet aggregation in platelet-rich plasma from volunteers. To be noted: alanine replacement mutant. Format: cell-based, human.

Protocol for platelets: After obtaining informed consent from volunteers, blood was collected via plastic tubing using acid citrate-dextrose (38 mM citric acid; 75 mM sodium citrate; 135 mM glucose) as anticoagulant. Where indicated, volunteers had ingested 650 mg acetylsalicylic acid (ASA) 18 h prior to blood donation. Platelet-rich plasma (PRP) was prepared with an initial whole blood centrifugation (200 g, 15 min, 25° C.), and a second centrifugation of the PRP (90 g, 10 min) to eliminate residual erythrocytes and leukocytes. The stock suspension of PRP was maintained at room temperature under 5% CO2-air.
Total volumes were adjusted to 300 μl with TSG buffer (Marcus et al., J. Clin. Invest. 88:1690, 1991; Marcus et al., J. Clin. Invest. 99:1351, 1997). After the 3 min preincubation, platelet agonists (ADP or collagen) were added at the concentrations indicated, and the aggregation response recorded for 4-5 min.

B1: chicken ovalbumin conjugated to Affigel beads (other, UniProt P01012 2-386, looked up)
chain: GSIGAASMEFCFDVFKELKVHHANENIFYCPIAIMSALAMVYLGAKDSTRTQINKVVRFDKLPGFGDSIEAQCGTSVNVHSSLRDILNQITKPNDVYSFSLASRLYAEERYPILPEYLQCVKELYRGGLEPINFQTAADQARELINSWVESQTNGIIRNVLQPSSVDSQTAMVLVNAIVFKGLWEKAFKDEDTQAMPFRVTEQESKPVQMMYQIGLFRVASMASEKMKILELPFASGTMSMLVLLPDEVSGLEQLESIINFEKLTEWTSSNVMEERKIKVYLPRMKMEEKYNLTSVLMAMGITDVFSSSANLSGISSAESLKISQAVHAAHAEINEAGREVVGSAEAGVDAASVSEEFRADHPFLFCIKHIATNAVLFFGRCVSP
notes: Control beads; also called ovalbumin-conjugated AG; ovalbumin-conjugated beads
With B1, the binding result in data set [1] was “no binding”.

B2: E174A mutant: CD39 mutant, Glutamate 174 replaced with alanine (protein, UniProt P49961 1-510, looked up, variant E174A)
Ectonucleoside triphosphate …: MEDTKESNVKTFCSKNILAILGFSSIIAVIALLAVGLTQNKALPENVKYGIVLDAGSSHTSLYIYKWPAEKENDTGVVHQVEECRVKGPGISKFVQKVNEIGIYLTDCMERAREVIPRSQHQETPVYLGATAGMRLLRMESEELADRVLDVVERSLSNYPFDFQGARIITGQEAGAYGWITINYLLGKFSQKTRWFSIVPYETNNQETFGALDLGGASTQVTFVPQNQTIESPDNALQFRLYGKDYNVYTHSFLCYGKDQALWQKLAKDIQVASNEILRDPCFHPGYKKVVNVSDLYKTPCTKRFEMTLPFQQFEIQGIGNYQQCHQSILELFNTSYCPYSQCAFNGIFLPPLQGDFGAFSAFYFVMKFLNLTSEKVSQEKVTEMMKKFCAQPWEEIKTSYAGVKEKYLSEYCFSGTYILSLLLQGYHFTADSWEHIHFIGKIQGSDAGWTLGYMLNLTNMIPAEQPLSTPLSHSTYVFLMVLFSLVLFTVAIIGLLIFHKPSYFWKDMV
Regarding B2, the “enzymatic activity of mutant” value in data set [2] is on record as “completely devoid of enzymatic activity”. The “effect on platelet responsiveness” value in the data set with platelets is “no effect on platelet responsiveness”.
